Measured values published in the Immune Epitope Database (IEDB).

Columns and labels:
Assay in all cases: IEDB peptide-MHC binding, purified MHC/competitive/fluorescence; filed as Kd, often an IC50 or EC50 that approximates it; ≥ and ≤ were set here for values at or beyond the usual limits of such assays
Details in all cases: source organism: Xanthobacter autotrophicus Py2
[1] = target: HLA-B*57:01
[2] = target: HLA-A*03:01
[3] = target: HLA-A*80:01
[4] = target: HLA-B*18:01
[5] = target: HLA-B*27:03
[6] = target: HLA-A*68:02
[7] = target: HLA-B*15:17
[8] = target: HLA-B*51:01
[9] = target: HLA-A*69:01
[10] = target: HLA-A*25:01
[11] = target: HLA-A*02:12
[12] = target: HLA-A*29:02
[13] = target: HLA-A*02:01
[14] = target: HLA-B*46:01
[15] = target: HLA-A*26:01

Sequence: GQMYNMNTL
- Kd [1]: ≥ 20 µM
- Kd [2]: ≥ 20 µM
- Kd [3]: ≥ 20 µM
- Kd [4]: ≥ 20 µM
- Kd [5]: ≥ 20 µM
- Kd [6]: ≥ 20 µM
- Kd [7]: ≥ 20 µM
- Kd [8]: ≥ 20 µM
- Kd [9]: ≥ 20 µM
- Kd [10]: ≥ 20 µM
- Kd [11]: 0.0014 µM
- Kd [12]: ≥ 20 µM
- Kd [13]: ≥ 20 µM
- Kd [14]: ≥ 20 µM
- Kd [15]: ≥ 20 µM
